Usually Kd stands for the free concentration of one partner at which half of the binding sites on the other are occupied at equilibrium, for simple one-to-one binding. Broadly, the IC50 is the midpoint of a concentration-inhibition curve.

The text below walks through data of US20160208003A1 (AFFITECH RESEARCH, published 2016).

Experiment [1] addresses T1, human CC chemokine receptor 4 (CCR4) (human, UniProt P51679 1-360).
T1 construct: whole, on cells; Always presented on cells; also called CD194; human CCR4
T1 sequence (looked up): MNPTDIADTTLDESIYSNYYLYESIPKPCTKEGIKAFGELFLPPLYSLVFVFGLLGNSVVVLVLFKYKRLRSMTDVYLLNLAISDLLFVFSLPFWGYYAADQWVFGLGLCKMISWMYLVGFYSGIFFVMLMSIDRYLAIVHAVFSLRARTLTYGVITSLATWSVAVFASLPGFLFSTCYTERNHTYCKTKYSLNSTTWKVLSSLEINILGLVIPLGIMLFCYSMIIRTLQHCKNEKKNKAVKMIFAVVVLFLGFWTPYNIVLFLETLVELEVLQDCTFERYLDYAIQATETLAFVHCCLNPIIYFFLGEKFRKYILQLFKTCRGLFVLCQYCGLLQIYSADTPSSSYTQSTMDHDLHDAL
Put plainly: flow cytometry, saturation titration of IgG on CCRF-CEM cells; one site-specific binding fit. For orientation: Flow cytometry measures light scatter and fluorescence of single cells or particles in a stream.

Experiment [2] addresses T1, human CC chemokine receptor 4 (CCR4). Put plainly: flow cytometry competition; antibody titrated, competitor biotinylated MDC; cell line not given. On the procedure:
The cells were harvested from culture flasks, washed 2 times with PBS (400×g, 5 min, 4° C.) and resuspended in PBS containing 0.2% BSA and 0.09% NaN3. 1×10^5 cells per well were aliquoted into V-shaped 96-well plates (Greiner Bio-One, Frikenhausen, Germany). Cells were centrifuged (400×g, 5 min, 4° C.) and resuspended in 50 μl IgG, single chain or unlabeled ligand (1:10 dilution series starting on 100/500/26, 4 μg/ml) mixed with a fixed concentration of biotinylated ligand (10 or 20 nM, see legend to FIG. 24). The cells were incubated for 2 hours at 4° C. and mixed with a pipette every 45 min. The cells were washed three times with 150 μl PBS with 0.2% BSA and 0.09% NaN3 and stained with 3 μg/ml streptavidin PE (BD Biosciences) for 45 minutes at 4° C. Cells were washed, resuspended in 200 μl PBS with 0.2% BSA and 0.09% NaN3, and transferred to a U-shaped 96 well Costar (Corning, Schiphol-Rijik, The Netherlands) plate for flow cytometry using an FACS Canto II flow cytometer (BD Biosciences, Heidelberg, Germany). […] Apparent binding affinities (KD) were calculated according to the following equation derived from previously described methods (Kipriyanov et al, 1997b; Schodin & Kranz, 1993): […]

In experiment [3] the target is T2, monkey (Macaca mulatta) CCR4 (monkey (Macaca mulatta), UniProt F7GUA3 1-360).
T2 construct: also called monkey CCR4
T2 sequence: T1 sequence (looked up) with M116I, L201I, L215F, E269D, L334F
Put plainly: flow cytometry, 10 µg/ml antibody on HEK-293T/17 cells transiently transfected with monkey CCR4, anti-human-IgG-PE. How it is done:
For transient transfection, Hek293T/17 cells were seeded as 2×10^6 cells in a T75 (NUNC) flask. 48 h after seeding, the cells were transfected with Fugene (ROCHE). 40 μl Fugene and 16 μg DNA are used per T75. The cells were used for assays 48 h after transfection.
HEK-293T/17 cells, were transiently transfected either with pcDNA3.1 plasmid encoding human CCR4 or with pLNO plasmids (Norderhaug et al, 1997) encoding either mouse (GeneBank CAA62372) or monkey (Macaca mulatta) CCR4 (PubMed access number XP_001098807) using Fugene (Roche) as a transfection reagent. Non-transfected (CCR4 negative) cells served as a negative control. The cells were cultivated further for 48 hours under regular conditions described above. The cells were washed twice with PBS, detached from the culture flasks by incubating with Accutase (PAA laboratories, Linz, Austria) for 3 minutes at room temperature. The cells were then washed 2 times with PBS (400×g, 5 min, 4° C.) and resuspended in PBS containing 0.2% BSA and 0.09% NaN₃. 1×10⁵ cells per well were aliquoted into V-shaped 96-well plates (Griner Bio-One, Frikenhausen, Germany). Cells were centrifuged (400×g, 5 min, 4° C.) and resuspended in 50 μl of 10 μg/ml 9E or 9E10J, in PBS containing 0.2% BSA and 0.09% NaN3. The cells were incubated further at 4° C. for 60 min. The samples were then washed twice by centrifugation and re-suspension in 100 μl FACS buffer. […]

Experiment [4] concerns the target T1, human CC chemokine receptor 4 (CCR4). Description: calculated from the IC50; CCRF-CEM cells, competitor 0.7 nM biotinylated IgG 9E. How it is done: DT40 and CCRF-CEM cells were cultivated as described in Example 2. The cells were harvested from culture flasks, washed 2 times with PBS (400×g, 5 min, 4° C.) and resuspended in PBS containing 0.2% BSA and 0.09% NaN3. 1×10^5 cells per well were aliquoted into V-shaped 96-well plates (Griner Bio-One, Frikenhausen, Germany). Cells were centrifuged (400×g, 5 min, 4° C.) and resuspended in 50 μl IgG 9E10J or KM3060var (dilution series starting at 5 μg/ml) mixed with biotinylated competitor antibody 9E (0.1 or 0.5 μg/ml). The cells were incubated for 2 hours at 4° C., mixing with a pipette every 45 min. The cells were washed three times with 150 μl PBS with 0.2% BSA and 0.09% NaN3 and stained with 3 μg/ml streptavidin PE (BD Biosciences) for 45 minutes at 4° C. Cells were washed, resuspended in 200 μl PBS with 0.2% BSA and 0.09% NaN3, and transferred to a U-shaped 96 well Costar (Corning, Schiphol-Rijik, The Netherlands) plate for flow cytometry using an FACS Canto II flow cytometer (BD Biosciences, Heidelberg, Germany).

Changes are numbered by the printed parent chain.

B1: 9E10J IgG (full length human IgG1, lambda) (antibody, V domains shown)
VH: QVQLVQSGAEVKKPGSSVKVSCKASGGTFSSYAISWVRQAPGQGLEWMGGIIPIFGTANYAQKFQGRVTMTRDTSTSTVYMELSSLRSEDTAVYYCARRGGSYFDYWGQGTLVTVSS
VL: SYVLTQPPSASGTPGQSVTISCSGSTSNIGSHYVFWYQQLPGTAPRLLIYRNHQRPSGVPDRLSGSKSGTSASLAISGLRSEDEADYYCAVWDDTLSGWVFGGGTKLTVLG
notes: also called IgG 9E10J; unmodified 9E10J
For the molecule B1, the Kd is 0.13 nM in experiment [1] and 0.06 nM in experiment [4]. For the same molecule, the IC50 in experiment [2] worked out at 0.85 nM. For the same molecule, the binding result in experiment [3] is “binds”.

B2: 9E IgG (full length human IgG1, lambda) (antibody, V domains shown)
VH: B1 VH with S31N, M70I, R72A, T74E, V79A
VL: B1 VL
notes: also called IgG 9E; IgG1 9E
On to B2, for which the Kd is 0.37 nM in experiment [1] and 0.33 nM in experiment [4]. In addition, the IC50 in experiment [2] came to 3.9 nM. Also, the binding result in experiment [3] is on record as “binds”.
